# Experimental data taken from article PMC11101478 (2024).
# B1: gpJ713 (C-terminal truncation of bacteriophage lambda gpJ, starting from residue 713) (domain or fragment)
# chain: APAAPSRIELTPGYFQITATPHLAVYDPTVQFEFWFSEKQIADIRQVETSTRYLGTALYWIAASINIKPGHDYYFYIRSVNTVGKSAFVEAVGRASDDAEGYLDFFKGKITESHLGKELLEKVELTEDNASRLEEFSKEWKDASDKWNAMWAVKIEQTKDGKHYVAGIGLSMEDTEEGKLSQFLVAANRIAFIDPANGNETPMFVAQGNQIFMNDVFLKRLTAPTITSGGNPPAFSLTPDGKLTAKNADISGSVNANSGTLSNVTIAENCTINGTLRAEKIVGDIVKAASAAFPRQRESSVDWPSGTRTVTVTDDHPFDRQIVVLPLTFRGSKRTVSGRTTYSMCYLKVLMNGAVIYDGAANEAVQVFSRIVDMPAGRGNVILTFTLTSTRHSADIPPYTFASDVQVMVIKKQALGISVV
# Experiments:
# Test in all cases: BLI
# E. coli LamB A384S = E. coli LamB A384S (E. coli, UniProt P02943 26-446, A384S)
# [1] = molecular target: Shigella sonnei 3070 LamB (Shigella sonnei 3070, UniProt Q3YUU9 26-446)
# E. coli LamB = E. coli LamB (E. coli, UniProt P02943 26-446)
binder,measurement,setting,value
B1,koff,E. coli LamB A384S,< 1e-07 s⁻¹
same,koff,[1],< 1e-07 s⁻¹
same,koff,E. coli LamB,0.00427 s⁻¹
